Measurements: the supplement of paper PMC10567573

B1: WEE1 (parent)
chain: FLGSSFSPVRCGGPGDASPRGCGA

Variants of: B1
Test: protein stability index of a GFP-peptide fusion (GPS, HEK-293T) (PSI 1-6); higher = more stable
Conditions: c terminus: a fixed tail appended
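Note: lentivirally expressed fusions sorted by FACS into six bins by GFP to DsRed ratio, PSI derived from sequencing read proportions per bin multiplied by bin number.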

| Variant | protein stability index |
| --- | --- |
| FLGSSFSPVRCGGGGDASPRGCGA [P14G] | 2.04 |
| FLGSSFSPVRCGGYGDASPRGCGA [P14Y] | 2.42 |
| FLGSSFSPVRCGGLGDASPRGCGA [P14L] | 1.59 |
| FLGSSFSPVRCGGMGDASPRGCGA [P14M] | 1.17 |
| FLGSSFSPVRCGGQGDASPRGCGA [P14Q] | 2.42 |
| FLGSSFSPVRCGGEGDASPRGCGA [P14E] | 2.22 |
| FLGSSFSPVRCGGHGDASPRGCGA [P14H] | 1.86 |
| FLGSSFSPVRCGGCGDASPRGCGA [P14C] | 2.18 |
| FLGSSFSPVRCGGDGDASPRGCGA [P14D] | 1.9 |
| FLGSSFSPVRCGGTGDASPRGCGA [P14T] | 1.15 |
| FLGSSFSPVRCGGIGDASPRGCGA [P14I] | 2.29 |
| FLGSSFSPVRCGGNGDASPRGCGA [P14N] | 1.85 |
| FLGSSFSPVRCGGRGDASPRGCGA [P14R] | 2.35 |
| FLGSSFSPVRCGGVGDASPRGCGA [P14V] | 1.35 |
| FLGSSFSPVRCGGFGDASPRGCGA [P14F] | 3.56 |
| FLGSSFSPVRCGGKGDASPRGCGA [P14K] | 2.81 |
| FLGSSFSPVRCGGWGDASPRGCGA [P14W] | 1.94 |
| FLGSSFSPVRCGGSGDASPRGCGA [P14S] | 2.24 |
| FLGSSFSPVRCGPPGDASPRGCGA [G13P] | 2.12 |
| FLGSSFSPVRCGVPGDASPRGCGA [G13V] | 2.05 |
| FLGSSFSPVRCGLPGDASPRGCGA [G13L] | 2.58 |
| FLGSSFSPVRCGIPGDASPRGCGA [G13I] | 2.43 |
| FLGSSFSPVRCGTPGDASPRGCGA [G13T] | 1.55 |
| FLGSSFSPVRCGWPGDASPRGCGA [G13W] | 1.56 |

| Variant | protein stability index |
| --- | --- |
| FLGSSFSPVRCGMPGDASPRGCGA [G13M] | 1.58 |
| FLGSSFSPVRCGQPGDASPRGCGA [G13Q] | 2.98 |
| FLGSSFSPVRCGNPGDASPRGCGA [G13N] | 2.38 |
| FLGSSFSPVRCGRPGDASPRGCGA [G13R] | 1.87 |
| FLGSSFSPVRCGSPGDASPRGCGA [G13S] | 2.29 |
| FLGSSFSPVRCGYPGDASPRGCGA [G13Y] | 1.63 |
| FLGSSFSPVRCGHPGDASPRGCGA [G13H] | 1.87 |
| FLGSSFSPVRCGKPGDASPRGCGA [G13K] | 2.29 |
| FLGSSFSPVRCGGPGDASPRQCGA [G21Q] | 2.17 |
| FLGSSFSPVRCGGPGDASPRTCGA [G21T] | 2.08 |
| FLGSSFSPVRCGGPGDASPRPCGA [G21P] | 1.91 |
| FLGSSFSPVRCGGPGDASPRFCGA [G21F] | 1.64 |
| FLGSSFSPVRCGGPGDASPRLCGA [G21L] | 1.95 |
| FLGSSFSPVRCGGPGDASPRICGA [G21I] | 1.97 |
| FLGSSFSPVRCGGPGDASPRWCGA [G21W] | 1.38 |
| FLGSSFSPVRCGGPGDASPRSCGA [G21S] | 1.67 |
| FLGSSFSPVRCGGPGDASPRKCGA [G21K] | 1.81 |
| FLGSSFSPVRCGGPGDASPRCCGA [G21C] | 3.5 |
| FLGSSFSPVRCGGPGDASPRHCGA [G21H] | 1.87 |
| FLGSSFSPVRCGGPGDASPRNCGA [G21N] | 1.55 |
| FLGSSFSPVRCGGPGDASPRACGA [G21A] | 1.92 |
| FLGSSFSPVRCGGPGDASPRRCGA [G21R] | 1.96 |
| FLGSSFSPVRCGGPGDASPRECGA [G21E] | 2.06 |
| FLGSSFSPVRCGGPGDASPRMCGA [G21M] | 1.76 |

| Variant | protein stability index |
| --- | --- |
| FLGSSFSPVRCGGPGDASPRYCGA [G21Y] | 1.69 |
| FLGSSFSPVRCGGPGDASPRDCGA [G21D] | 1.64 |
| FLGSSFSPVRCGGPGDASPRVCGA [G21V] | 1.74 |
| FLGSSFSPVRCGGPVDASPRGCGA [G15V] | 1.65 |
| FLGSSFSPVRCGGPRDASPRGCGA [G15R] | 1.56 |
| FLGSSFSPVRCGGPEDASPRGCGA [G15E] | 1.59 |
| FLGSSFSPVRCGGPCDASPRGCGA [G15C] | 1.25 |
| FLGSSFSPVRCGGPNDASPRGCGA [G15N] | 1.77 |
| FLGSSFSPVRCGGPLDASPRGCGA [G15L] | 2.68 |
| FLGSSFSPVRCGGPWDASPRGCGA [G15W] | 3.02 |
| FLGSSFSPVRCGGPFDASPRGCGA [G15F] | 2.6 |
| FLGSSFSPVRCGGPTDASPRGCGA [G15T] | 2.25 |
| FLGSSFSPVRCGGPSDASPRGCGA [G15S] | 2.02 |
| FLGSSFSPVRCGGPMDASPRGCGA [G15M] | 1.88 |
| FLGSSFSPVRCGGPQDASPRGCGA [G15Q] | 1.45 |
| FLGSSFSPVRCGGPKDASPRGCGA [G15K] | 1.93 |
| FLGSSFSPVRCGGPADASPRGCGA [G15A] | 2.45 |
| FLGSSFSPVRCGGPYDASPRGCGA [G15Y] | 2.37 |
| FLGSSFSPVRCGGPDDASPRGCGA [G15D] | 2.06 |
| FLGSSFSPVRCGGPHDASPRGCGA [G15H] | 1.76 |
| FLGSSFSPVRCGGPIDASPRGCGA [G15I] | 1.82 |
| FLGSSFSPVRCGGPPDASPRGCGA [G15P] | 1.75 |
| FLGSSFSPVRCGGPGGASPRGCGA [D16G] | 1.99 |
| FLGSSFSPVRCGGPGYASPRGCGA [D16Y] | 1.23 |

| Variant | protein stability index |
| --- | --- |
| FLGSSFSPVRCGGPGFASPRGCGA [D16F] | 2.35 |
| FLGSSFSPVRCGGPGMASPRGCGA [D16M] | 2.45 |
| FLGSSFSPVRCGGPGIASPRGCGA [D16I] | 1.61 |
| FLGSSFSPVRCGGPGEASPRGCGA [D16E] | 1.93 |
| FLGSSFSPVRCGGPGNASPRGCGA [D16N] | 1.39 |
| FLGSSFSPVRCGGPGSASPRGCGA [D16S] | 2.09 |
| FLGSSFSPVRCGGPGQASPRGCGA [D16Q] | 1.86 |
| FLGSSFSPVRCGGPGLASPRGCGA [D16L] | 1.88 |
| FLGSSFSPVRCGGPGVASPRGCGA [D16V] | 1.91 |
| FLGSSFSPVRCGGPGWASPRGCGA [D16W] | 1.74 |
| FLGSSFSPVRCGGPGRASPRGCGA [D16R] | 2.06 |
| FLGSSFSPVRCGGPGPASPRGCGA [D16P] | 1.73 |
| FLGSSFSPVRCGGPGCASPRGCGA [D16C] | 2.57 |
| FLGSSFSPVRCGGPGKASPRGCGA [D16K] | 1.81 |
| FLGSSFSPVRCGGPGHASPRGCGA [D16H] | 2.27 |
| FLGSSFSPVRCGGPGTASPRGCGA [D16T] | 1.57 |
| FLGSSFSPVRCGGPGAASPRGCGA [D16A] | 1.26 |
| FLGSSFSPVRCGGPGDASPRGCEA [G23E] | 1.75 |
| FLGSSFSPVRCGGPGDASPRGCAA [G23A] | 2.4 |
| FLGSSFSPVRCGGPGDASPRGCFA [G23F] | 2.37 |
| FLGSSFSPVRCGGPGDASPRGCCA [G23C] | 2.64 |
| FLGSSFSPVRCGGPGDASPRGCDA [G23D] | 2.22 |
